Experimental data as given in patent CN112063765A.

Experiments:
[1] = biological target: H1N1特异性的表位肽 (SEQ ID NO:4) (Influenza A virus H1N1)
[2] = biological target: H1N1特异性的表位肽 (SEQ ID NO:4) (Influenza A virus H1N1); assay: indirect ELISA, titre of purified ascites antibody

B1: 3E6单克隆抗体 (antibody, V domains shown)
VH: EVQLEESGTELARPGASVKLALKASGYIFSSYSGQWIKQRPGAGLELIGYPYPGWIDTRYTQKLTGKATLTADKSSSTLYMQLSSLASEDSAVAYCAGSYFSSDAWGLGTTLAVSS
VL: DIVLTQSPALMAASAGEKVTITCAVSQSIQSGYLAWYQQKSGISPKPWIYDTSNQAGGVPARFSGAGSGTSYSLTITSMEAEDAATYYCAQGTTSPLSFGAGTKLELK
[1]
  Kd: 0.48 nM
[2]
  OD492 at dilution 1:1000: 4.91 OD492
  OD492 at dilution 1:10000: 1.89 OD492
  OD492 at dilution 1:100000: 0.455 OD492
  OD492 at dilution 1:1000000: 0.121 OD492
  OD492 at dilution 1:10000000: 0.0632 OD492
